Test results from patent publication US20180305431A1 (Novo Nordisk, published 2018).

Assays:
[1] = target: membrane-associated human IR-B (plasma membranes of BHK cells stably transfected with the human IR-B insert) (human) (UniProt P06213); assay: SPA competition vs [125I-A14Y]-human insulin, membrane hIR-B, 0.1% HSA
[2] = target: membrane-associated human IR-A (plasma membranes of BHK cells stably transfected with the human IR-A insert) (human) (UniProt P06213); assay: SPA competition vs [125I-A14Y]-human insulin, membrane hIR-A, 0.1% HSA
[3] = target: insulin receptor on primary rat adipocytes (rat) (UniProt P15127); assay: cell-based or functional assay
[4] = target: T1, solubilised human IR-A (semipurified by wheat germ agglutinin chromatography from baby hamster kidney (BHK) … (human, UniProt P06213-2 28-1370)); assay: SPA competition vs [125I-A14Y]-human insulin, solubilised hIR-A, 1.5% HSA
T1 construct: mature; Detergent-solubilised holoreceptor captured by anti-IR mouse antibody 83-7 on SPA beads; the precursor is processed into alpha and beta chains; also called hIRA; human insulin receptor (IR), A isoform

[5] = target: T1, solubilised human IR-A (semipurified by …); assay: SPA competition vs [125I-A14Y]-human insulin, solubilised hIR-A, 0% HSA
[6] = target: T2, membrane-associated human IGF-1R (plasma membranes of BHK cells stably transfected with the human IGF-IR … (human, UniProt P08069 31-1367)); assay: SPA competition vs [125I-Tyr31]-human IGF-1, membrane hIGF-1R, 0.1% HSA
T2 construct: whole, on cells; Receptor in purified plasma membranes, not on intact cells; also called hIGF1R; insulin-like growth factor 1 receptor
Experimental: The relative binding affinity for either of the membrane-associated human IR-A, IR-B or IGF-1R is determined by competition binding in a SPA setup. IR assays are performed in duplicate in 96-well OptiPlates (Perkin-Elmer Life Sciences). […] Assays are terminated by centrifugation of the plate at 2000 rpm for 2 minutes and bound radioactivity quantified by counting on a TopCount NXT (Perkin-Elmer Life Sciences).
IGF-1R assays are conducted essentially as for the IR binding assays except that membrane-associated IGF-1R and 50 pM [¹²5-Tyr31]-human IGF-1 were employed.

T2 sequence (P08069 31-1367): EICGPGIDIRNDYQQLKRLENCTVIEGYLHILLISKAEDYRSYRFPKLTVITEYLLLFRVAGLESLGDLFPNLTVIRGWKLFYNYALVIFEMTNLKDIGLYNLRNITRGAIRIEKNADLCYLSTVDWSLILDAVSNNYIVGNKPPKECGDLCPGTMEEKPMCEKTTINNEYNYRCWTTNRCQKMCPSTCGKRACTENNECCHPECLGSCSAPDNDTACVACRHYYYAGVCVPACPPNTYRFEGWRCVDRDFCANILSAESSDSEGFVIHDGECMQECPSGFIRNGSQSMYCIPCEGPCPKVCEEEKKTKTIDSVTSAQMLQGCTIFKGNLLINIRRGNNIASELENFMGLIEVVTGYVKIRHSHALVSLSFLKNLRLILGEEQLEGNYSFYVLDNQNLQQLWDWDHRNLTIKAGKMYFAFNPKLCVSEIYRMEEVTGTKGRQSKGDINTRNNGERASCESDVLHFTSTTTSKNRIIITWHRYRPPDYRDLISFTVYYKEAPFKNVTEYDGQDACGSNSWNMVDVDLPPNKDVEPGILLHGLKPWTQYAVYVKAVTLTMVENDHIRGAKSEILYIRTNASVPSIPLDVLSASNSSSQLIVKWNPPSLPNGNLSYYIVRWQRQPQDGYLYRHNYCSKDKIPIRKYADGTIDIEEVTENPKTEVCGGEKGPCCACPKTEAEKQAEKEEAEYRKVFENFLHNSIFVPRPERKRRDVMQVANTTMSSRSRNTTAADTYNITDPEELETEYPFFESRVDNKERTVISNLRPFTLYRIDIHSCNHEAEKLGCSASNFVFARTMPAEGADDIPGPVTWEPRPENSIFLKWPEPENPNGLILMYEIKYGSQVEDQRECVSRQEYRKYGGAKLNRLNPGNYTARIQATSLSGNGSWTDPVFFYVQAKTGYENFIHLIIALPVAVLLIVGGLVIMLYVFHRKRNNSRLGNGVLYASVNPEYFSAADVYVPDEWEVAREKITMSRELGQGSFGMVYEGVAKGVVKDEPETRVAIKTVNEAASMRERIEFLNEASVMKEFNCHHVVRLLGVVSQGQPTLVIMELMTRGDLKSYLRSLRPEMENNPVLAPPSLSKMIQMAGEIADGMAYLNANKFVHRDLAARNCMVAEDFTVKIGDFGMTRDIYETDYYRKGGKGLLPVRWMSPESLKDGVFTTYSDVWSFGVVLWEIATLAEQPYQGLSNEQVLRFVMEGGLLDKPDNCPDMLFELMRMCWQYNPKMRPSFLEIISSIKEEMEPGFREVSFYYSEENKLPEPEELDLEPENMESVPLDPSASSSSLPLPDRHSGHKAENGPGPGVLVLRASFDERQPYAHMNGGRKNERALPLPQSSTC
insulin receptor on primary rat adipocytes (rat), sequence (P15127 27-1383): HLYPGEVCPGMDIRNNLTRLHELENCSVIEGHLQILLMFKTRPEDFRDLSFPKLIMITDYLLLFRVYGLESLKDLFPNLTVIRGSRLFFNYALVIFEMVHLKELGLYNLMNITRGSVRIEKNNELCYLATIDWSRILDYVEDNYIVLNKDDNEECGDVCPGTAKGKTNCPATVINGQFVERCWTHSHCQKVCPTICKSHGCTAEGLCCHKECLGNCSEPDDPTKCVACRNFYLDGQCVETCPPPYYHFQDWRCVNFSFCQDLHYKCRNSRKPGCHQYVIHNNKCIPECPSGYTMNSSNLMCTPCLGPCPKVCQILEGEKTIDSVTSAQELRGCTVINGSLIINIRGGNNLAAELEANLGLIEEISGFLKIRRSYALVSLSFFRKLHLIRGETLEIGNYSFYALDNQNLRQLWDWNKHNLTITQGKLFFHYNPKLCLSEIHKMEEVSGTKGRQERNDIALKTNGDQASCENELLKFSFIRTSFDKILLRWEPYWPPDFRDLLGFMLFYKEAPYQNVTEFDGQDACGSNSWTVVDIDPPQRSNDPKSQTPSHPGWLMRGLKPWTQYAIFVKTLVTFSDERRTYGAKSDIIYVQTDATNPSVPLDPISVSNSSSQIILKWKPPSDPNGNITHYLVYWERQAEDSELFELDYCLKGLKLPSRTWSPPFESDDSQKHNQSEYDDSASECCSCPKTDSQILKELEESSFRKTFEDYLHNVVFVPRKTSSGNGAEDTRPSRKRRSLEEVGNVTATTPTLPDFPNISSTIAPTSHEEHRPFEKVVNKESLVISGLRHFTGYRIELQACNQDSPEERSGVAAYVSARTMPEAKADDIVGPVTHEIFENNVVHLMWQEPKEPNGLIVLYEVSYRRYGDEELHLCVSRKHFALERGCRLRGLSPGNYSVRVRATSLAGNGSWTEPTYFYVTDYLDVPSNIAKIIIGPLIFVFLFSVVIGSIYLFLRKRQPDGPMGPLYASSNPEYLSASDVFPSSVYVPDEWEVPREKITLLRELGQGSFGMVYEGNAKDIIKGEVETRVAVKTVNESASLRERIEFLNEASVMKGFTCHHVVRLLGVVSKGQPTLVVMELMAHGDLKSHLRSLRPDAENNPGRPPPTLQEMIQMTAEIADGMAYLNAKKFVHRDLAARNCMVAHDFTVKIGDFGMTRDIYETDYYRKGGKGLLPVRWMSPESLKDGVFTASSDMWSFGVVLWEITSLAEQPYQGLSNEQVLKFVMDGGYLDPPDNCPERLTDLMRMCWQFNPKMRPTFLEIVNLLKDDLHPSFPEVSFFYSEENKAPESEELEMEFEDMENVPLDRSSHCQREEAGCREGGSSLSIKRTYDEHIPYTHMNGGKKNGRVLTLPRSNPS
membrane-associated human IR-B (plasma membranes of BHK cells stably transfected with the human IR-B insert) (human), sequence (P06213 28-1382): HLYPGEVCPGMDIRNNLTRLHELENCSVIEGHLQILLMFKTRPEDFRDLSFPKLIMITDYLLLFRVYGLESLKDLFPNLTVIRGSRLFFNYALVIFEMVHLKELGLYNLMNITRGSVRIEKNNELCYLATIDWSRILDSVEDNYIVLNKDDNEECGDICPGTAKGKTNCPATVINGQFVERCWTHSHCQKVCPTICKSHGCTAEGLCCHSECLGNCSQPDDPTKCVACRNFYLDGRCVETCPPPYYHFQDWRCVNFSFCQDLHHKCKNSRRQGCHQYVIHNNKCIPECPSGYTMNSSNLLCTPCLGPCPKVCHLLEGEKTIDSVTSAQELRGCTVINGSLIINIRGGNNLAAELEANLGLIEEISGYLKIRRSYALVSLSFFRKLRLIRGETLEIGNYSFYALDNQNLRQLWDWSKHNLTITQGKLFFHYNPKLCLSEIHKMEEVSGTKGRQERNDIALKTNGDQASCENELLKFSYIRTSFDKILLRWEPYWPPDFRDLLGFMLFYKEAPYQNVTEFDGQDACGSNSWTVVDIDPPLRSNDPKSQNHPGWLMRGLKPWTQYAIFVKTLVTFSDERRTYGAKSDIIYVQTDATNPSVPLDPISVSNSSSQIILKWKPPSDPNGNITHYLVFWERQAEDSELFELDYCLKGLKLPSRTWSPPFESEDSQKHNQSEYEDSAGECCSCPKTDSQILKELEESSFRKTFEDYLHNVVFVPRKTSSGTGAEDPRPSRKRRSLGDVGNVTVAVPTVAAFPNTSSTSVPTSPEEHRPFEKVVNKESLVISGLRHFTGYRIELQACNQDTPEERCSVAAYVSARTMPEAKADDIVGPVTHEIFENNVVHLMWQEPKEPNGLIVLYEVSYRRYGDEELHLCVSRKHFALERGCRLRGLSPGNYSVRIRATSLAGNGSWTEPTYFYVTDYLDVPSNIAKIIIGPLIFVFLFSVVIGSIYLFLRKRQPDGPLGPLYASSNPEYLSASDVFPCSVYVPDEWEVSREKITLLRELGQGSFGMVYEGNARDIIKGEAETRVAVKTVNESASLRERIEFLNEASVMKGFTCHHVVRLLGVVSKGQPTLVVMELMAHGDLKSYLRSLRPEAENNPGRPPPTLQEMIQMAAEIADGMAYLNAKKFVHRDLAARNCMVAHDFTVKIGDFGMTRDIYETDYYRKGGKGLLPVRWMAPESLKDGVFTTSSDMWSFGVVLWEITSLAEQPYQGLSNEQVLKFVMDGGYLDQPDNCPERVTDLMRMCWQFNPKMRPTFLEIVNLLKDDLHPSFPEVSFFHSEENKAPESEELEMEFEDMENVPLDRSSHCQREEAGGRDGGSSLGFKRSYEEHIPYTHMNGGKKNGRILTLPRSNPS

Row | Molecule | relative binding affinity (% rel to HI) [1] | relative binding affinity (% rel to HI) [2] | Lipogenesis 1% HSA (% rel to HI) [3] | relative binding affinity (% rel to HI) [4] | relative binding affinity (% rel to HI) [5] | relative binding affinity (% rel to HI) [6]
1 | A22K(N(eps)tetradecanedioyl-4xgGlu), B3E, B27E, B28E, B29P, B30R human insulin (ligand) | 70 % rel to HI | 45.1 % rel to HI | 23.7 % rel to HI | – | – | –
2 | A22K(N(eps)hexadecanedioyl-4xgGlu), B3E, B27E, B29R, desB30 human insulin (ligand) | 55.3 % rel to HI | 25.7 % rel to HI | 1.1 % rel to HI | – | – | –
3 | A22K(N(eps)tetradecanedioyl-gGlu-2xOEG), B3E, B27E, B28E, B29R, desB30 human insulin (ligand) | 159 % rel to HI | 103 % rel to HI | 23.9 % rel to HI | – | – | –
4 | A22K(N(eps)tetradecanedioyl-4xgGlu), B3E, B26E, B27E, B28E, B29R, desB30 human insulin (ligand) | 82.4 % rel to HI | 48.3 % rel to HI | 18.2 % rel to HI | – | – | –
5 | A22K(N(eps)hexadecanedioyl-4xgGlu), B3E, B27E, B28E, B29R, desB30 human insulin (ligand) | 35.7 % rel to HI | 29.1 % rel to HI | 4.4 % rel to HI | – | – | –
6 | A22K(N(eps)tetradecanedioyl-4xgGlu), B3E, B27E, B28R, desB29, desB30 human insulin (ligand) | 81.7 % rel to HI | 40.6 % rel to HI | 29.9 % rel to HI | – | – | –
7 | A22K(N(eps)tetradecanedioyl-4xgGlu), B3Q, B26E, B28E, B29R, desB30 human insulin (ligand) | 133 % rel to HI | 78.5 % rel to HI | 31.2 % rel to HI | – | – | –
8 | A22K(N(eps)Hexadecanedioyl-gGlu-2xOEG), B3E, B27E, B29R, desB30 human insulin (ligand) | 72.1 % rel to HI | 71.1 % rel to HI | 3.2 % rel to HI | – | – | –
9 | A22K(N(eps)tetradecanedioyl-gGlu-2xOEG), B3E, B28D, B29R, desB30 human insulin (ligand) | 108 % rel to HI | 93.9 % rel to HI | 21.3 % rel to HI | – | – | –
10 | A22K(N(eps)hexadecanedioyl-gGlu-2xOEG), B3E, B27P, B28E, B29R, desB30 human insulin (ligand) | 29.4 % rel to HI | 31.2 % rel to HI | 3.3 % rel to HI | – | – | –
11 | A22K(N(eps)hexadecanedioyl-4xgGlu), B3E, B28D, B29R, desB30 human insulin (ligand) | 47.8 % rel to HI | 20.9 % rel to HI | 3.8 % rel to HI | – | – | –
12 | A22K(N(eps)tetradecanedioyl-4xgGlu), B3E, B27P, B28E, B29R, desB30 human insulin (ligand) | 77.6 % rel to HI | 64.3 % rel to HI | 27 % rel to HI | – | – | –
13 | A22K(N(eps)tetradecanedioyl-4xgGlu), B3E, B26E, B27E, B28R, desB29, desB30 human insulin (ligand) | 93.3 % rel to HI | 57.2 % rel to HI | 29.6 % rel to HI | – | – | –
14 | A22K(N(eps)hexadecanedioyl-gGlu-2xOEG), B3E, B28D, B29R, desB30 human insulin (ligand) | 40.7 % rel to HI | 32.1 % rel to HI | 2.6 % rel to HI | – | – | –
15 | A22K(N(eps)tetradecanedioyl-gGlu-2xOEG), B3E, B27P, B28E, B29R, desB30 human insulin (ligand) | 75.9 % rel to HI | 75.6 % rel to HI | 20.3 % rel to HI | – | – | –
16 | A22K(N(eps)hexadecanedioyl-4xgGlu), B3E, B27P, B28E, B29R, desB30 human insulin (ligand) | 32.1 % rel to HI | 27.5 % rel to HI | 3.7 % rel to HI | – | – | –

Row | Molecule | relative binding affinity (% rel to HI) [1] | relative binding affinity (% rel to HI) [2] | Lipogenesis 1% HSA (% rel to HI) [3] | relative binding affinity (% rel to HI) [4] | relative binding affinity (% rel to HI) [5] | relative binding affinity (% rel to HI) [6]
17 | A22K(N(eps)hexadecanedioyl-gGlu-2xOEG), B3E, B26E, B29R, desB30 human insulin (ligand) | 40.2 % rel to HI | 34.4 % rel to HI | – | – | – | –
18 | A22K(N(eps)tetradecanedioyl-4xgGlu), B3E, B28D, B29R, desB30 human insulin (ligand) | 93.7 % rel to HI | 64.9 % rel to HI | 26.4 % rel to HI | – | – | –
19 | A22K(N(eps)tetradecanedioyl-4xgGlu), B3E, B26E, B28E, B29P, B30R human insulin (ligand) | 76.2 % rel to HI | 46.4 % rel to HI | 17.9 % rel to HI | – | – | –
20 | A22K(N(eps)hexadecanedioyl-4xgGlu), B3E, B26E, B29R, desB30 human insulin (ligand) | 46.8 % rel to HI | 29.1 % rel to HI | – | – | – | –
21 | A22K(N(eps)tetradecanedioyl-4xgGlu), B3E, B27E, B28E, B29R, desB30 human insulin (ligand) | 157 % rel to HI | 74.9 % rel to HI | 27.3 % rel to HI | – | – | –
22 | A22K(N(eps)tetradecanedioyl-4xgGlu), B3E, B26E, B27P, B28R, desB29, desB30 human insulin (ligand) | 90.7 % rel to HI | 63.2 % rel to HI | 78.8 % rel to HI | – | – | –
23 | A22K(N(eps)tetradecanedioyl-4xgGlu), B3E, B26E, B29R, desB30 human insulin (ligand) | 105 % rel to HI | 66.9 % rel to HI | 31.3 % rel to HI | – | – | –
24 | A22K(N(eps)tetradecanedioyl-4xgGlu), B3E, B26E, B28E, B29R, desB30 human insulin (ligand) | 111 % rel to HI | 68 % rel to HI | 20.5 % rel to HI | – | – | –
25 | A22K(N(eps)tetradecanedioyl-4xgGlu), B3E, B28E, B29P, B30R human insulin (ligand) | 94.5 % rel to HI | 44.6 % rel to HI | 19.5 % rel to HI | – | – | –
26 | A22K(N(eps)tetradecanedioyl-4xgGlu), B3E, B27E, B29R, desB30 human insulin (ligand) | 119 % rel to HI | 61.5 % rel to HI | 11.1 % rel to HI | – | – | –
27 | A22K(N(eps)tetradecanedioyl-4xgGlu), B3Q, B26E, B29R, desB30 human insulin (ligand) | 163 % rel to HI | 76.5 % rel to HI | 31.4 % rel to HI | – | – | –
28 | A22K(N(eps)hexadecanedioyl-gGlu-2xOEG), B3E, B27E, B28E, B29R, desB30 human insulin (ligand) | 38.2 % rel to HI | 30.9 % rel to HI | 4.4 % rel to HI | – | – | –
29 | A8R, A22K(N(eps)tetradecanedioyl-4xgGlu), B3E, B26E, B28E, B29R, desB30 human insulin (ligand, not fully specified; Lys A22 acylated on N(eps) with tetradecanedioyl-4xgGlu, Two-chain acylated insulin analogue; also called Ex. No. 23) chain 1: GIVEQCCRSICSLYQLENYCNK chain 2: FVEQHLCGSHLVEALYLVCGERGFFETER | 143 % rel to HI | 78.5 % rel to HI | 59 % rel to HI | 182 % rel to HI | 229 % rel to HI | 5.7 % rel to HI
30 | A8R, A22K(N(eps)tetradecanedioyl-4xgGlu), B3E, B26E, B29R, desB30 human insulin (ligand, not fully specified; Lys A22 acylated on N(eps) with tetradecanedioyl-4xgGlu, Two-chain acylated insulin analogue; also called Ex. No. 15) chain 1: GIVEQCCRSICSLYQLENYCNK chain 2: FVEQHLCGSHLVEALYLVCGERGFFETPR | 174 % rel to HI | 108 % rel to HI | 70.9 % rel to HI | 237 % rel to HI | 294 % rel to HI | 10.8 % rel to HI
31 | A8R, A22K(N(eps)tetradecanedioyl-4xgGlu), B3E, B27E, B28E, B29R, desB30 human insulin (ligand, not fully specified; Lys A22 acylated on N(eps) with tetradecanedioyl-4xgGlu, Two-chain acylated insulin analogue; also called Ex. No. 24) chain 1: GIVEQCCRSICSLYQLENYCNK chain 2: FVEQHLCGSHLVEALYLVCGERGFFYEER | 164 % rel to HI | 88.1 % rel to HI | 78.6 % rel to HI | 211 % rel to HI | 274 % rel to HI | 24 % rel to HI
32 | A14E, A22K(N(eps)hexadecanedioyl-4xgGlu), B3E, B27E, B28E, B29R, desB30 human insulin (ligand, not fully specified; Lys A22 acylated on N(eps) with hexadecanedioyl-4xgGlu, Two-chain acylated insulin analogue; also called Ex. No. 27) chain 1: GIVEQCCTSICSLEQLENYCNK chain 2: FVEQHLCGSHLVEALYLVCGERGFFYEER | 23.2 % rel to HI | 16.5 % rel to HI | 3.7 % rel to HI | 5.4 % rel to HI | 114 % rel to HI | 14.3 % rel to HI
